Assay results taken from patent US20230272011A1 (AVACTA LIFE SCIENCES, published 2023).

Legend:
[1] = molecular target: T1, mouse serum albumin (mouse, UniProt P07724 25-608); experiment: binding ELISA on coated MSA, pH 6.0
T1 construct: also called MSA
Procedure: Human (Sigma-Aldrich); Cynomolgus and Mouse (Abcam); Equine (Abcam); Canine (Abcam); Mouse (Sigma-Aldrich); Rabbit (Sigma-Aldrich); Porcine (Sigma-Aldrich);, and Rat (Sigma-Aldrich) serum albumin were coated overnight on 96 well plates (Corning Costar) at 1 μg/ml in PBS at the appropriate pH (pH 6.0 or 7.4). Plates were saturated using 5% Casein (Sigma-Aldrich) buffer in PBS. […] Plates were then washed and AFFIMER® proteins were detected using a biotinylated polyclonal antibody anti-Cystatin (R&D System) for 90 minutes. After washing, streptavidin-HRP (Thermo Fisher Scientific) was added and incubated for 30 minutes.
Briefly, PD-1 was coated overnight on the plate at 1 μg/ml in carbonate buffer. Then plates were saturated using 5% Casein/PBS buffer. […] After saturation, the mix was added to the plates and incubated for 90 minutes. Plates were then washed and the detection polyclonal antibody, biotinylated anti-PD-L1, was added. After washing the plates, streptavidin-HRP was added for 30 minutes. After a final wash, development of the reaction was performed using TMB (Pierce) and the plates were read using a plate reader at 450 nm (FIG. 26C).

[2] = molecular target: T2, cynomolgus serum albumin (cynomolgus); experiment: Octet biolayer interferometry, pH 6.0
T2 construct: also called CSA; cyno serum albumin
Procedure: (§1) Biotinylated antigen was captured onto SA sensors at 1 μg/ml for 600 seconds in a buffer comprising PBS-T (0.01% Tween 20)+1% casein at either pH 6.0 or 7.4. Association was carried out for 300 seconds and dissociation for 600 seconds, and regeneration was performed using 10 mM glycine pH 1.5 (GE Healthcare) for 3×5 seconds. All steps were carried out at 1000 rpm and 25° C. Purified AFFIMER® polypeptide in two-fold serial dilutions was analyzed at a starting concentration of approximately 10× K_{D value}. Kinetics analyses were carried out using the Octet data analysis software, subtracting the reference sensor (loaded with antigen), aligning the Y-axis to baseline, and using inter-step correction to align association to dissociation. Savitzky-Golay filtering was applied and the data processed. Analysis of the data was carried out with a 1:1 model, global fit, Rₘₐₓ unlinked by sensor.
(§2) AFFIMER® polypeptides were incubated with AcTEV for 1 hour at 30° C. as recommend by the manufacturer (Invitrogen) and removal of cleaved His tag by binding NiNTA resin (Generon) and collecting the cleaved protein flow through. […] Pharmacokinetic profile of IV-injected His tag cleaved AFFIMER® protein compared to C-terminally His-tagged AFFIMER® protein was evaluated.

[3] = molecular target: T3, human serum albumin (human, UniProt P02768 25-609); experiment: Octet biolayer interferometry, pH 6.0
T3 construct: mature; Bought protein; biotinylated in the Octet and HTRF assays; also called HSA; HuSA
Procedure: as §1, §2

[4] = molecular target: T1, mouse serum albumin; experiment: Octet biolayer interferometry, pH 6.0
Procedure: as §1, §2

[5] = molecular target: T3, human serum albumin; experiment: SPR (Biacore), immobilised HSA, Affimer analyte
[6] = molecular target: T3, human serum albumin; experiment: SPR (Biacore), immobilised HSA, Affimer analyte; remark: listed apart in the source
Procedure: Affinities for mouse, human, and cynomolgus serum were also measured at pH 7.4 for four (4) AFFIMER® binders using surface plasmon resonance (SPR) (FIG. 5, Table 5). […] A concentration titration of AFFIMER® monomers was run as analyte at a flow rate of 30 μl/min or 60 μl/min. Fc2-1, Fc3-1 and Fc4-1 kinetic data was blank subtracted and fit to a 1:1 Langmuir binding model (BIAcore Evalution software; GE) to calculate KD values. […]

[7] = molecular target: T2, cynomolgus serum albumin; experiment: BLI (Octet), biotinylated albumin on SA sensor, pH 6.0
Method in brief: (§3)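 First, biotinylated albumin (1 μg/ml, 600 s) was immobilised on SA tips in PBS-T with 1% casein at pH 6.0 or 7.4. Next, serially diluted AFFIMER® polypeptide associated for 300 s, then dissociated for 600 s, at 25° C and 1000 rpm. Finally, sensors were regenerated with 10 mM glycine pH 1.5.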

[8] = molecular target: T3, human serum albumin; experiment: as above
Method in brief: as §3

[9] = molecular target: T1, mouse serum albumin; experiment: as above
Method in brief: as §3

[10] = molecular target: T2, cynomolgus serum albumin; experiment: BLI (Octet), biotinylated albumin on SA sensor, pH 7.4
Method in brief: as §3

[11] = molecular target: T3, human serum albumin; experiment: as above
Method in brief: as §3

[12] = molecular target: T1, mouse serum albumin; experiment: as above
Method in brief: as §3

[13] = molecular target: T3, human serum albumin; experiment: SPR (Biacore) binding response to HSA at pH 7.4, Affimer at 50 nM
Description: Final clones were sequence-verified, produced from E. coli, and affinity purified as described in Example 3.

[14] = molecular target: T3, human serum albumin; experiment: binding ELISA on coated albumin, pH 6.0, panel 'HSA Binding at pH 6.0'
[15] = molecular target: T2, cynomolgus serum albumin; experiment: Octet biolayer interferometry, biotinylated albumin on SA sensors, pH 6.0
Method in brief: as §3

[16] = molecular target: T3, human serum albumin; experiment: as above
Method in brief: as §3

[17] = molecular target: T1, mouse serum albumin; experiment: as above
Method in brief: as §3

[18] = molecular target: T3, human serum albumin; experiment: Octet biolayer interferometry, biotinylated albumin on SA sensors, pH 7.4
Method in brief: as §3

[19] = molecular target: T1, mouse serum albumin; experiment: as above
Method in brief: as §3

T2 sequence (A2V9Z4 25-608): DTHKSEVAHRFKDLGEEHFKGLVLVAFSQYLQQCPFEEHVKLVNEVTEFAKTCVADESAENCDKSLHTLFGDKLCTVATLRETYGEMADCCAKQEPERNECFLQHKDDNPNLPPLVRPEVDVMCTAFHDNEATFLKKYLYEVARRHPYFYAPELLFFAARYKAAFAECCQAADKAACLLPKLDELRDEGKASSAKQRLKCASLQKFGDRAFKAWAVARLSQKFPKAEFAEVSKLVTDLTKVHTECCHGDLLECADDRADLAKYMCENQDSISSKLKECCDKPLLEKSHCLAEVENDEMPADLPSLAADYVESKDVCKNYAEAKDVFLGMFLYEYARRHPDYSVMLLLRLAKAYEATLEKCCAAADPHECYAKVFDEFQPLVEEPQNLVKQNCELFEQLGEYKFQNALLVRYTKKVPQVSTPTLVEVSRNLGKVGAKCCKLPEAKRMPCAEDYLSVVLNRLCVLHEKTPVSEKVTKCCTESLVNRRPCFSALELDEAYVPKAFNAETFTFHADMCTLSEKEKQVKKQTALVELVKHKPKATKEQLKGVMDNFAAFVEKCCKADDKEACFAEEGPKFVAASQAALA
T1 sequence (P07724 25-608 limits assumed): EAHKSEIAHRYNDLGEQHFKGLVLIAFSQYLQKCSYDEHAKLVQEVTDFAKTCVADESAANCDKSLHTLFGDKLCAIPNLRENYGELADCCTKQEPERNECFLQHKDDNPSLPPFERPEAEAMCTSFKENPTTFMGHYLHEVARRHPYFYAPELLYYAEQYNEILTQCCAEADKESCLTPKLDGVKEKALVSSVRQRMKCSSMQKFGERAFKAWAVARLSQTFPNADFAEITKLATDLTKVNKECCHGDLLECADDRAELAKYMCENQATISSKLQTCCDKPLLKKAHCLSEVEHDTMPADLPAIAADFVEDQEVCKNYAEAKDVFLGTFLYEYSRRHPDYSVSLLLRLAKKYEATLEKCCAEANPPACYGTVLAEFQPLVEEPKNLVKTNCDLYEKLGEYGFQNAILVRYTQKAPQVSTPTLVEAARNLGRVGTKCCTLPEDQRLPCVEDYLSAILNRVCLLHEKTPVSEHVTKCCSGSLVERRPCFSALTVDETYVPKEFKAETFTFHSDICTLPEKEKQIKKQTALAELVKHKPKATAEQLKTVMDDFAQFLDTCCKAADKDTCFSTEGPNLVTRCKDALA

EC50 (read off the curve) [1]: ~0.7 nM
Kd [2]: 220 nM
Kd [3]: 11.9 nM
Kd [4]: 50.5 nM
Kd [5]: 2.4 nM
koff [5]: 0.00354 s⁻¹
kon [5]: 1.48e+06 M⁻¹ s⁻¹
Kd [6]: 5.13 nM
koff [6]: 0.00435 s⁻¹
kon [6]: 848000 M⁻¹ s⁻¹
Kd [7]: 105 nM
Kd [8]: 7.1 nM
Kd [9]: 95.2 nM
Kd [10]: 71.5 nM
Kd [11]: 5.2 nM
Kd [12]: 47.9 nM
binding response [13]: 36.8
EC50 (read off the curve) [14]: ~0.04 nM
koff [15]: 0.00717 s⁻¹
kon [15]: 68100 M⁻¹ s⁻¹
koff [16]: 0.00198 s⁻¹
kon [16]: 278000 M⁻¹ s⁻¹
koff [17]: 0.0447 s⁻¹
kon [17]: 470000 M⁻¹ s⁻¹
koff [18]: 0.00198 s⁻¹
kon [18]: 379000 M⁻¹ s⁻¹
koff [19]: 0.0318 s⁻¹
kon [19]: 663000 M⁻¹ s⁻¹
B1: HSA-41 (designed binder)
chain: MIPRGLSEAKPATPEIQEIVDKVKPQLEEKTNETYGKLEAVQYKTQVLANFFQRRWPGSTNYYIKVRAGDNKYMHLKVFNGPWKFRNTDRGADRVLTGYQVDKNKDDELTGFHHHHHH
notes: also called HSA-41 parent; HSA-41 AH parent
